The results in this text go back to patent US10618965 (dated 2020).

In one assay the target is T1, mouse FcRn (mouse, UniProt Q61559).
T1 chain 1: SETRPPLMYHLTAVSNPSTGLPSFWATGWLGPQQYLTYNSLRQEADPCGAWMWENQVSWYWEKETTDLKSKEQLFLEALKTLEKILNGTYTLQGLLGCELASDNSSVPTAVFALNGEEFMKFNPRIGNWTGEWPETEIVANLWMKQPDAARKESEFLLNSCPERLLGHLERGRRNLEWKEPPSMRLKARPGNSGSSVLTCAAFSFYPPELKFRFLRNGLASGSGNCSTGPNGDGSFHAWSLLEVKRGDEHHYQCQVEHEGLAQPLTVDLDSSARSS
T1 chain 2: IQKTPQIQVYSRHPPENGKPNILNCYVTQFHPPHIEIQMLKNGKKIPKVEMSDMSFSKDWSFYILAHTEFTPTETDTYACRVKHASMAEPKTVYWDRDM
The assay is described as follows: SPR, pH 7.0. Background: Surface plasmon resonance follows binding to a sensor surface in real time, without labels.

For assay [1], the target named is T2, human FcgRIIa(R) (human).
T2 chain: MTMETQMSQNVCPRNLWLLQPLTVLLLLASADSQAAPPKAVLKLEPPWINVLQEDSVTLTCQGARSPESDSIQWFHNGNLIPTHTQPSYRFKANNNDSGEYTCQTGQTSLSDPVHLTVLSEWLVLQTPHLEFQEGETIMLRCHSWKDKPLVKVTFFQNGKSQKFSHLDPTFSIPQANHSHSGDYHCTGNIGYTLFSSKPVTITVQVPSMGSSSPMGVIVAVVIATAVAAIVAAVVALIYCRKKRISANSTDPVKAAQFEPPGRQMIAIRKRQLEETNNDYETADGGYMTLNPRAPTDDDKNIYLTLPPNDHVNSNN
The assay is described as follows: SPR.

For assay [2], the target named is human FcgRIIIa(V) (human). Briefly: SPR.
In assay [3] the target is T3, human FcgRIIb (human).
T3 chain: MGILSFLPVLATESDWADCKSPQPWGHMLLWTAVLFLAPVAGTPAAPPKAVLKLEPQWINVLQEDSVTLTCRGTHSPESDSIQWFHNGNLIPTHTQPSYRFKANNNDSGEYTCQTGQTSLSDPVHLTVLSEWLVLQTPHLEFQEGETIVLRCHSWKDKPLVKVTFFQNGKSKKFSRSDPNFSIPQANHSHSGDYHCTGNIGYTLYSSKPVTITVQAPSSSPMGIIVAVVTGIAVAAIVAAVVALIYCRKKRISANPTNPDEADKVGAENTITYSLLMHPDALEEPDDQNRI
Briefly: SPR.

Assay [4] addresses T3, human FcgRIIb. Briefly: SPR.
Assay [5] has as its target human FcgRIa (human). The assay is described as follows: SPR.
Assay [6] concerns the target human FcgRIIIa(V) (human). The assay is described as follows: SPR. This is another data set of the same source.
The target of assay [7] is human FcgRIa (human). The assay is described as follows: SPR. The source holds these as a separate data set.
The target of assay [8] is T4, human FcgRIIa(H) (human).
T4 chain: T2 chain
Briefly: SPR.

For assay [9], the target named is T3, human FcgRIIb. Briefly: SPR.
Assay [10] addresses T3, human FcgRIIb. The assay is described as follows: SPR.
Assay [11] addresses human FcgRIIIa(V) (human). Briefly: SPR. The source holds these as a separate data set.
Assay [12] concerns the target T2, human FcgRIIa(R). Briefly: SPR.
In assay [13] the target is T4, human FcgRIIa(H). Briefly: SPR.
The target in assay [14] is human FcgRIa (human). Briefly: SPR. The source holds these as a separate data set.
The target of assay [15] is T2, human FcgRIIa(R). The assay is described as follows: SPR.
The target of assay [16] is T4, human FcgRIIa(H). Briefly: SPR.
For assay [17], the target named is T3, human FcgRIIb. The assay is described as follows: SPR.
The target in assay [18] is human FcRn (with beta2-microglobulin) (human). Briefly: SPR, pH 7.0.
Assay [19] has the same target. Briefly: SPR, pH 7.0. This is another data set of the same source.
For assay [20] the target is unchanged. Briefly: SPR, neutral pH.
For assay [21] the target is unchanged. The assay is described as follows: SPR, pH 7.0. The source holds these as a separate data set.
For assay [22] the target is unchanged. Briefly: SPR, pH 7.0. This is another data set of the same source.

Residue numbers refer to the chain shown, from its start. Like-named read-outs stand apart in the source and are kept apart here.

Chain of human FcgRIIIa(V) (human) (chain, as listed by the source): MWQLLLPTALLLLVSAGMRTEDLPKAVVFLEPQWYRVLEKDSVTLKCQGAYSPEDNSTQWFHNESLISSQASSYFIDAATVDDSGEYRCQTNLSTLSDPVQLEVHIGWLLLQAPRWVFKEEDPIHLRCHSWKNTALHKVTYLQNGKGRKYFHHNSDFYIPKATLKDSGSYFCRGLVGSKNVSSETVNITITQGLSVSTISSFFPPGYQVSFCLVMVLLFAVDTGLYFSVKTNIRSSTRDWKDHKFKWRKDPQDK
Chain of human FcRn (with beta2-microglobulin) (human) (chain, as listed by the source, chain 1 of 2): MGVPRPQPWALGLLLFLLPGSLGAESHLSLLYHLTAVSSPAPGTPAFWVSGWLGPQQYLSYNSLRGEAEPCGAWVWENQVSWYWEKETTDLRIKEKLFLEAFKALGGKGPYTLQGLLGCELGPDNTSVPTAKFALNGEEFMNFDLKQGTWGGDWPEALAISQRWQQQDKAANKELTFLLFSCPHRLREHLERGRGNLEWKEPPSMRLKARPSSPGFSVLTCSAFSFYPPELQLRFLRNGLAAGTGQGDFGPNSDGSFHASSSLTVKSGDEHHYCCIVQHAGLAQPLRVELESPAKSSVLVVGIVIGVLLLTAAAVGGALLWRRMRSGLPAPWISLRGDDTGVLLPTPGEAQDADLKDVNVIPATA
Chain of human FcRn (with beta2-microglobulin) (human) (chain, as listed by the source, chain 2 of 2): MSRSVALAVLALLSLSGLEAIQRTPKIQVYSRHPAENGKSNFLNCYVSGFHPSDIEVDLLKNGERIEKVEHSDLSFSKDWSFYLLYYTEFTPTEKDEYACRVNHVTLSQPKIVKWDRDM
Chain of human FcgRIa (human) (chain, as listed by the source): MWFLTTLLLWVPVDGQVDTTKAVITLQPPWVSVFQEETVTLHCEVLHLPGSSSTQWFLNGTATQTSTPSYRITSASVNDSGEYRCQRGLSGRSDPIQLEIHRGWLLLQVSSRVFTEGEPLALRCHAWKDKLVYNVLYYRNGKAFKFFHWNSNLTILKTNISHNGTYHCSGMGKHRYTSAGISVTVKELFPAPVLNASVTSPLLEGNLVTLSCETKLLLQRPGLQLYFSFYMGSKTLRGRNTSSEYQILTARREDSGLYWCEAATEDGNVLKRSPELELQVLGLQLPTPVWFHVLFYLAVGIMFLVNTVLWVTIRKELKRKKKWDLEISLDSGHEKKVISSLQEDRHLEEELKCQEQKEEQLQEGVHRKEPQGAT

B1: mF40 (antibody)
chain 1: DVQLQESGPVLVKPSQSLSLTCTVTGYSITSDHAWSWIRQFPGNKLEWMGYISYSGITTYNPSLKSRISITRDTSKNQFFLQLNSVTTGDTSTYYCARSLARTTAMDYWGQGTSVTVSSAKTTPPSVYPLAPGSAAQTNSMVTLGCLVKGYFPEPVTVTWNSGSLSSGVHTFPAVLQSDLYTLSSSVTVPSSTWPSETVTCNVAHPASSTKVDKKIVPRDCGCKPCICTVKEVSKVFIFPPKPKDVLYITLEPKVTCVVVDISKDDPEVQFSWFVDDVEVHTAQTQPREEQFNSTFRSVSELPIMHQDWLNGKEFKCRVNSAAFPAPIEKTISKTKGRPKAPQVYTIPPPKEQMAKDKVSLTCMITDFFPEDITVEWQWNGQPAENYKNTQPIMDTDGSYFVYSKLNVQKSNWEAGNTFTCSVLHEGLHWHHTEKSLSHSPGK
chain 2: not shown
The term Kd denotes the concentration at which binding is half-saturated. A higher Kd goes with a looser complex. As for B1, binding with mouse FcRn was characterised by a dissociation constant (Kd) of 3.2 nM.

B2: mF38 (antibody)
chain 1: B1 chain 1 with K231P, K235S
chain 2: not shown
In turn, B2 registered a dissociation constant Kd in the assay with mouse FcRn of 4 nM.

B3: mF39 (antibody)
chain 1: B1 chain 1 with H429K, W430N
chain 2: not shown
In the assay with mouse FcRn, B3 registered an equilibrium dissociation constant (Kd) of 21 nM.

B4: IL6R-G1d/IL6R-L (IgG1) (antibody)
chain 1: not shown
chain 2: DIQMTQSPSSLSASVGDRVTITCRASQDISSYLNWYQQKPGKAPKLLIYYTSRLHSGVPSRFSGSGSGTDFTFTISSLQPEDIATYYCQQGNTLPYTFGQGTKVEIK
Turning to B4, the Kd in the assay with human FcgRIIa(R) [1] was 1000 nM; in the assay with human FcgRIIIa(V) [2], 350 nM; with human FcgRIIb [3], 5300 nM; with human FcgRIIb [4], 5300 nM; with human FcgRIa [5], 0.32 nM; with human FcgRIIIa(V) [6], 350 nM. The Kd stood at 0.32 nM with human FcgRIa [7]; 670 nM in the assay with human FcgRIIa(H) [8]; 2600 nM in the assay with human FcgRIIb [9]; 2600 nM in the assay with human FcgRIIb [10]; 350 nM in the assay with human FcgRIIIa(V) [11]; 1000 nM in the assay with human FcgRIIa(R) [12]. Further, the dissociation constant Kd in the assay with human FcgRIIa(H) [13] stood at 670 nM; with human FcgRIa [14], 0.32 nM; in the assay with human FcgRIIa(R) [15], 1000 nM; with human FcgRIIa(H) [16], 670 nM; with human FcgRIIb [17], 2600 nM.

B5: IL6R-B3/IL6R-L (antibody)
chain 1: not shown
chain 2: B4 chain 2
B5: the Kd in the assay with human FcgRIIa(R) [1] worked out at 1100 nM; in the assay with human FcgRIa [5], 0.42 nM; in the assay with human FcgRIIIa(V) [6] it was 330 nM; in the assay with human FcgRIIa(H) [8], 770 nM; with human FcgRIIb [10], 3100 nM; with human FcgRIIIa(V) [11], 330 nM. Besides, the Kd in the assay with human FcgRIIa(H) [13] came to 770 nM; with human FcgRIa [14], 0.42 nM; with human FcgRIIa(R) [15] it was 1100 nM; with human FcgRIIb [17], 3100 nM.

B6: IL6R-F11/IL6R-L (antibody)
chain 1: not shown
chain 2: B4 chain 2
With B6, the Kd with human FcgRIa [7] turned out to be 0.9 nM; with human FcgRIIb [9], 6800 nM; in the assay with human FcgRIIa(R) [12] it was 5000 nM; with human FcgRIIa(H) [16] it was 5000 nM.

B7: IL6R-BF648 (antibody)
chain 1: not shown
chain 2: B4 chain 2
In the case of B7, the Kd came to 15000 nM with human FcgRIIa(R) [1]; 11 nM with human FcgRIa [5]; 1200 nM with human FcgRIIb [10]; 11 nM with human FcgRIa [14]; 15000 nM with human FcgRIIa(R) [15]; 1200 nM with human FcgRIIb [17].

B8: IgG1-F140 (antibody)
chain 1: QVQLQESGPGLVKPSETLSLTCAVSGHSISHDHAWSWVRQPPGEGLEWIGFISYSGITNYNPSLQGRVTISRDNSKNTLYLQMNSLRAEDTAVYYCARSLARTTAMDYWGEGTLVTVSSASTKGPSVFPLAPSSKSTSGGTAALGCLVKDYFPEPVTVSWNSGALTSGVHTFPAVLQSSGLYSLSSVVTVPSSSLGTQTYICNVNHKPSNTKVDKKVEPKSCDKTHTCPPCPAPELLGGPKVFLFPPKPKDTLYISRTPEVTCVVVDVSHEDPEVKFNWYVDGVEVHNAKTKPREEQYNSTYRVVSVLTPLHQDWLNGKEYKCKVSNKALPAPIEKTISKAKGQPREPQVYTLPPSRDELTKNQVSLTCLVKGFYPSDIAVEWESNGQPENNYKTTPPVLDSDGSFFLYSKLTVDKSRWQQGNVFSCSVMHEALHYHYTQKSLSLSP
chain 2: not shown
Regarding B8, the Kd in [18] and in assay [19] was 36 nM each time.

B9: IgG1-F21 (antibody)
chain 1: B8 chain 1 with K241S
chain 2: not shown
B9: the dissociation constant Kd in assay [18], in assay [20] and in assay [19] was 30 nM in each case.

B10: IgG1-F698 (antibody)
chain 1: B8 chain 1 with K241S, N288E, T309Q, P310V, Q313A
chain 2: not shown
For B10, the dissociation constant (Kd) in assay [21] and in [22] was 22 nM throughout.

B11: F39 (antibody)
chain 1: B8 chain 1 with K241S, S256T, P310V
chain 2: not shown
For B11, the affinity in [20], expressed as Kd, was 300 nM.

B12: IgG1-F699 (antibody)
chain 1: B8 chain 1 with N288E, T309Q, P310V, Q313A
chain 2: not shown
As to B12, in assay [22], the affinity, expressed as Kd, was 23 nM.

B13: IgG1-F763 (antibody)
chain 1: B8 chain 1 with L237R, N288E, T309Q, P310V, Q313A
chain 2: not shown
In turn, B13 showed a Kd in assay [21] of 35 nM.

B14: F38 (antibody)
chain 1: B8 chain 1 with K241S, S256T, P310V, Y436W
chain 2: not shown
As to B14, the Kd in [20] was 100 nM.
